# Molecular target: T1, Human GUCY2C (captured on anti-human Fc capturing antibody, SPR) (human)
# T1 construct: also called human GCC; guanylyl cyclase C
# Experiment: SPR (Biacore T200), human GUCY2C captured via anti-human Fc, sdAb as analyte, 1:1 fit
# Method: (§1) Anti-GCC sdAbs were diluted with 1×HBS-EP buffer. Human GUCY2C was captured on anti-human Fc capturing Ab-immobilized sCM5 chip. Then anti-GCC sdAb samples were injected with a flow rate of 10 μl/min for 180 sec, followed by dissociation for 800 sec. The binding curves were locally fitted with Biacore® T200 analysis software (BIAevaluation) using a 1:1 Langmuir binding model.
# T1 sequence (P25092 24-430): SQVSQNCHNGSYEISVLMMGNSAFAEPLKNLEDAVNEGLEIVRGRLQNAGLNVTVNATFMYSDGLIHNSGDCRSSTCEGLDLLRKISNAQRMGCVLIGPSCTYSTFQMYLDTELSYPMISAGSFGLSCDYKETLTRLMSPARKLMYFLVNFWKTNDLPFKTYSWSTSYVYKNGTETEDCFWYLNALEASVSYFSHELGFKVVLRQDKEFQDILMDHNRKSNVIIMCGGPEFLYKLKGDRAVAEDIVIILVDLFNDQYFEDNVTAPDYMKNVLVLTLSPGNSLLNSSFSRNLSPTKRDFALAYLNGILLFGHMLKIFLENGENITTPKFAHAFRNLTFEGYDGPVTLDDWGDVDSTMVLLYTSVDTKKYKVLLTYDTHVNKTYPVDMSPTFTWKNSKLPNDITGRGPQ
Binder,Kd [nM],koff [s⁻¹],kon [M⁻¹ s⁻¹]
"anti-GCC single domain antibody SEQ ID NO. 1 (VHH, Alpaca-derived sdAb) VHH: QVQLVESGGGLVQAGGSLRLSCTGSARPFSNYGMGWFRQAPGKEREFVAAISGGGVYTDFADAVKGRFTISRDNAKNTVYLQMNSLKPEDTAVYYCARARTARVVSRRHEYDYWGQGTQVTVSS",0.56,0.0002,357000
"anti-GCC single domain antibody SEQ ID NO. 2 (VHH, Alpaca-derived sdAb) VHH: QVQLVESGGGLVQAGGSLRLSCTASGGTFVNYGMGWFRQAPGKEREFVAAISGGGVYRDFADSVKGRFTISRDNAKNTVYLQMNSLKPEDTALYYCARARTPRVVNRRHEYDYWGQGTQVTVSS",0.0759,4.67e-05,615000
"anti-GCC single domain antibody SEQ ID NO. 3 (VHH, Alpaca-derived sdAb) VHH: QVQFVESGGGLVQAGGSLRLSCTASGGIFSNYGMGWFRQAPGKEREFVAAISGGGVYTDFADSVKGRFTISRDRAKNTVYLQMNSLKPEDTAVYYCARARTARLTSRRHDYDYWGQGTQVTVSS",0.218,0.00018,827000
"anti-GCC single domain antibody SEQ ID NO. 10 (VHH, Alpaca-derived sdAb) VHH: AVQLVESGGGMVQPGGSLRLSCAASGFTFGAYDMTWVRQAPGKGAEWVSAINSGGDRTYYTDSVKGRFTISRDNAKNTLYLQMNSLKPADTAKYYCGTKIPQFLRGQGTQVTVSS",0.427,0.000702,1.64e+06
"anti-GCC single domain antibody SEQ ID NO. 4 (VHH, Alpaca-derived sdAb) VHH: QSQLVESGGGLVQPGGSLRLSCAASGSTLDHYATAWFRRAPGKEREGISYISSGGGSTYYVDSVKGRFTISRDNAKRTVYLQMNSLKPEDTAVYFCASKRRFNTGWSEPSDYNVWGQGTQVTVTS",0.414,0.000149,359000
"anti-GCC single domain antibody SEQ ID NO. 5 (VHH, Alpaca-derived sdAb) VHH: AVQLVESGGGLVQPGGSLRLSCAASGSTISINVMGWYRQAPGKQRDLVAAISSVGSTYYADSVKGRFTISRDNAKNTVYLQMNSLKPEDTAVYYCNAKSLISDYWGQGTQVTVSS",0.431,0.000142,330000
"anti-GCC single domain antibody SEQ ID NO. 6 (VHH, Alpaca-derived sdAb) VHH: QVQVVESGGGLVQAGGSLRLSCAASGRAFSSYAMGWFRQAPGKQRELVAVITSGGSTNYADSVKGRFTISRDNAKNTVYLQMNSLKPEDTAVYYCAAGTGYGGGFLIGYDYWGQGTQVTVSS",0.753,0.000172,228000

# Molecular target: T1, Human GUCY2C (captured on anti-human Fc …)
# Experiment: SPR (Biacore T200), human GUCY2C captured via anti-human Fc, humanized sdAb as analyte, 1:1 fit
# Method: as §1, with “Exemplary humanized anti-GCC” for “Anti-GCC”, “sdAbs of the present application” for “sdAbs”, “Then the humanized” for “Then”
Binder,Kd [nM],koff [s⁻¹],kon [M⁻¹ s⁻¹]
"humanized anti-GCC single domain antibody SEQ ID NO. 86 (VHH, 1) VHH: EVQLVESGGGLVQPGGSLRLSCTGSARPFSNYGMGWFRQAPGNEREFVAAISGGGVYTDFADSVKGRFTISRDNSKNTLYLQMNSLRAEDTAVYYCARARTARVVSRRHEYDYWGQGTQVTVSS",0.235,0.000181,768000
"humanized anti-GCC single domain antibody SEQ ID NO. 83 (VHH, 1) VHH: EVQLVESGGGLVQPGGSLRLSCAASARPFSNYGMGWFRQAPGKEREFVAAISGGGVYTYYADSVKGRFTISRDNSKNTLYLQMNSLRAEDTAVYYCARARTARVVSRRHEYDYWGQGTQVTVSS",0.115,0.000177,1.53e+06
"humanized anti-GCC single domain antibody SEQ ID NO. 92 (VHH, 3) VHH: EVQLVESGGGLVQPGGSLRLSCAASGGIFSNYGMGWFRQAPGKEREFVAAISGGGVYTYYADSVKGRFTISRDNSKNTLYLQMNSLRAEDTAVYYCARARTARLTSRRHDYDYWGQGTQVTVSS",0.759,0.000788,1.04e+06
"humanized anti-GCC single domain antibody SEQ ID NO. 88 (VHH, 2) VHH: EVQLVESGGGLVQPGGSLRLSCAASGGTFVNYGMGWFRQAPGKEREFVAAISGGGVYRYYADSVKGRFTISRDNSKNTLYLQMNSLRAEDTAVYYCARARTPRVVNRRHEYDYWGQGTQVTVSS",0.155,0.000337,2.17e+06
"humanized anti-GCC single domain antibody SEQ ID NO. 85 (VHH, 1) VHH: EVQLVESGGGLVQPGGSLRLSCAASARPFSNYGMGWFRQAPGKEREFVAAISGGGVYTYYADSVKGRFTISRDNSRNTLYLQMNSLRAEDTAVYYCARARTARVVSRRHEYDYWGQGTQVTVSS",0.187,0.000309,1.66e+06
"humanized anti-GCC single domain antibody SEQ ID NO. 94 (VHH, 3) VHH: EVQLVESGGGLVQPGGSLRLSCAASGGIFSNYGMGWFRQAPGKEREFVAAISGGGVYTYYADSVKGRFTISRDNSRNTLYLQMNSLRAEDTAVYYCARARTARLTSRRHDYDYWGQGTQVTVSS",0.425,0.000633,1.49e+06
"humanized anti-GCC single domain antibody SEQ ID NO. 112 (VHH, 8) VHH: EVQLVESGGGLVQPGGSLRLSCAASGFTFSHYAMSWVRQAPGKALEWVSDISSGGGITYYADSVKGRFTISRDNSKNTLYLQMNSLRAEDTAVYYCAKASAIGYLAYWMRNPVEYDTRGQGTLVTVSS",118,0.00462,39100
"humanized anti-GCC single domain antibody SEQ ID NO. 113 (VHH, 8) VHH: EVQLVESGGGLVQPGGSLRLSCGASGFTFSHYAMSWVRQAPGKALEWVSDISSGGGITKYADSVKGRFTISRDNSKNTLYLQMNSLRAEDTAVYYCAKASAIGYLAYWMRNPVEYDTRGQGTLVTVSS",1.29,0.00277,2.15e+06
"humanized anti-GCC single domain antibody SEQ ID NO. 114 (VHH, 8) VHH: QVQLVESGGGLVQPGGSLRLSCAASGFTFSHYAMSWVRQAPGKALEWVSDISSGGGITYYADSVAGRFTISRDNSRNTLYLQMNSLRAEDTAVYYCAKASAIGYLAYWMRNPVEYDTRGQGTLVTVSS",195,0.0044,22600
"humanized anti-GCC single domain antibody SEQ ID NO. 96 (VHH, 4) VHH: QSQLVESGGGLVQPGGSLRLSCAASGSTLDHYATAWFRRAPGKEREGISYISSGGGSTYYADSVKGRFTISRDNSKNTLYLQMNSLRAEDTAVYYCASKRRFNTGWSEPSDYNVWGQGTQVTVTS",1.74,0.000143,82600
"humanized anti-GCC single domain antibody SEQ ID NO. 97 (VHH, 4) VHH: QSQLVESGGGLVQPGGSLRLSCAASGSTLDHYATAWFRRAPGKEREGISYISSGGGSTYYVDSVKGRFTISRDNSKNTLYLQMNSLRAEDTAVYFCASKRRFNTGWSEPSDYNVWGQGTQVTVTS",3.68,0.000226,61300
"humanized anti-GCC single domain antibody SEQ ID NO. 101 (VHH, 5) VHH: AVQLVESGGGLVQPGGSLRLSCAASGSTISINVMGWYRQAPGKQRDLVAAISSVGSTYYADSVAGRFTISRDNSRNTLYLQMNSLRAEDTAVYYCNAKSLISDYWGQGTQVTVSS",0.574,0.000218,380000
"humanized anti-GCC single domain antibody SEQ ID NO. 100 (VHH, 5) VHH: AVQLVESGGGLVQPGGSLRLSCAASGSTISINVMGWYRQAPGKQRDLVAAISSVGSTYYADSVKGRFTISRDNSKNTLYLQMNSLRAEDTAVYYCNAKSLISDYWGQGTQVTVSS",0.324,0.000191,591000
"humanized anti-GCC single domain antibody SEQ ID NO. 107 (VHH, 7) VHH: EVQLVESGGGLVQPGGSLRLSCAASGSRFMTSSMGWYRQTPGKQREWVATATSSDSTLYADSVKGRFTISRDNAKNSLYLQMNSLRAEDTAVYYCFTTPPTFWGHGTQVTVSS",2.03,0.000531,261000
"humanized anti-GCC single domain antibody SEQ ID NO. 109 (VHH, 7) VHH: EVQLVESGGGLVQPGGSLRLSCAASGSRFMTSSMGWYRQTPGNQREWVATATSSDSTLYADSVKGRFTISRDNAKNSLYLQMNSLRAEDTAVYYCFTTPPTFWGHGTQVTVSS",11.8,0.00213,181000
"humanized anti-GCC single domain antibody SEQ ID NO. 108 (VHH, 7) VHH: EVQLVESGGGLVQPGGSLRLSCAASGSRFMTSSMGWYRQTPGKQREWVATATSSDSTLYADSVKGRFTISRDNARNSLYLQMNSLRAEDTAVYYCFTTPPTFWGHGTQVTVSS",2.37,0.000546,231000
"humanized anti-GCC single domain antibody SEQ ID NO. 110 (VHH, 7) VHH: EVQLVESGGGLVQPGGSLRLSCAASGSRFMTSSMGWYRQTPGNGREWVATATSSDSTLYADSVKGRFTISRDNAKNSLYLQMNSLRAEDTAVYYCFTTPPTFWGHGTQVTVSS",54.6,0.01,183000
"humanized anti-GCC single domain antibody SEQ ID NO. 116 (VHH, 9) VHH: QVQLVESGGGLVKPGGSLRLSCAASGETLSNYNIGWFRQAPGKEREGVSCISQIGFTNYADSVKGRFTISRDNAKNSLYLQMNSLRAEDTAVYYCAVTGGRWASCSFLPLRQDFESWGQGTLVTVSS",15.4,0.0636,4.14e+06

# Molecular target: T2, GCC expressed on T84 cells (UniProt P25092 24-1073, limits assumed)
# T2 construct: whole, on cells; also called guanylyl cyclase C; GUCY2C
# Experiment: flow cytometry on T84 cells expressing GCC, 300 nm [sic], PE-anti human Fc secondary; Blank 30.7
# Method: T84 cells expressing GCC were used to evaluate the binding affinity of the anti-GCC sdAbs. Briefly, 50 μL T84 cells at density of 3×10⁶ cells/mL were incubated with 50 μL anti-GCC sdAbs at 4° C. for 2 hours. After incubation, the cells were washed three times with 400 μL FACS buffer, resuspended with PE-anti human Fc 2nd antibody (eBioscience 12-4998-82, 1:1000 dilution) and incubated at 4° C. for 60 min. Then the cells were collected and subject to FACS analysis.
# T2 sequence (P25092 24-1073 limits assumed): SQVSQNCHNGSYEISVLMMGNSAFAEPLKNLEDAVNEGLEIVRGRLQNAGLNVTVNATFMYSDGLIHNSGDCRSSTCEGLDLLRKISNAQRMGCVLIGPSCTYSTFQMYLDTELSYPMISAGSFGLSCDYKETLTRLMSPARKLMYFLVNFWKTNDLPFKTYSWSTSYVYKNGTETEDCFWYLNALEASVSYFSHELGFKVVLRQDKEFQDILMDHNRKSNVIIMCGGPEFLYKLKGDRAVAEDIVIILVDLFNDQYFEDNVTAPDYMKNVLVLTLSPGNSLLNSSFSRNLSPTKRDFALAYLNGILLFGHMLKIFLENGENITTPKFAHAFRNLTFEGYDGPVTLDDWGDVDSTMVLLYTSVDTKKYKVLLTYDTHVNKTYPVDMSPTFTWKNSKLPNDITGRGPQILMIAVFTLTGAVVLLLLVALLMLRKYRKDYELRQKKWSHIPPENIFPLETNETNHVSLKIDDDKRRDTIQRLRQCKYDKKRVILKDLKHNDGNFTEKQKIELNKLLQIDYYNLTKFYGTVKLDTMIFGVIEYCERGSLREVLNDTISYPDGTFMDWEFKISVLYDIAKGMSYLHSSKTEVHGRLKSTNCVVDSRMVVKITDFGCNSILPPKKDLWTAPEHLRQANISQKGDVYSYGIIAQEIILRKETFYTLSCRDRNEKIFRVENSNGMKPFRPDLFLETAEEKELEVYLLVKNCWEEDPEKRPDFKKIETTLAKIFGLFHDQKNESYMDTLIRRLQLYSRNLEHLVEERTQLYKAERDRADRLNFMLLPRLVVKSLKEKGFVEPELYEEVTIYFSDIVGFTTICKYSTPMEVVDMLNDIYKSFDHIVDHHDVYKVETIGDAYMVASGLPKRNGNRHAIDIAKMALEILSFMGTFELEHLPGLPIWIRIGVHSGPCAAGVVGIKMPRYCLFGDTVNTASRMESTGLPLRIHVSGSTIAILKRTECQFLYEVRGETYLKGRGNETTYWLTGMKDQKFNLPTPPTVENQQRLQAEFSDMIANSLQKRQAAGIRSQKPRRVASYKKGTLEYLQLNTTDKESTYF
row,Binder,Geometric mean MFI
1,"anti-GCC single domain antibody SEQ ID NO. 1 (VHH, Alpaca-derived sdAb) VHH: QVQLVESGGGLVQAGGSLRLSCTGSARPFSNYGMGWFRQAPGKEREFVAAISGGGVYTDFADAVKGRFTISRDNAKNTVYLQMNSLKPEDTAVYYCARARTARVVSRRHEYDYWGQGTQVTVSS",790
2,"anti-GCC single domain antibody SEQ ID NO. 2 (VHH, Alpaca-derived sdAb) VHH: QVQLVESGGGLVQAGGSLRLSCTASGGTFVNYGMGWFRQAPGKEREFVAAISGGGVYRDFADSVKGRFTISRDNAKNTVYLQMNSLKPEDTALYYCARARTPRVVNRRHEYDYWGQGTQVTVSS",721
3,"anti-GCC single domain antibody SEQ ID NO. 3 (VHH, Alpaca-derived sdAb) VHH: QVQFVESGGGLVQAGGSLRLSCTASGGIFSNYGMGWFRQAPGKEREFVAAISGGGVYTDFADSVKGRFTISRDRAKNTVYLQMNSLKPEDTAVYYCARARTARLTSRRHDYDYWGQGTQVTVSS",910
4,"anti-GCC single domain antibody SEQ ID NO. 5 (VHH, Alpaca-derived sdAb) VHH: AVQLVESGGGLVQPGGSLRLSCAASGSTISINVMGWYRQAPGKQRDLVAAISSVGSTYYADSVKGRFTISRDNAKNTVYLQMNSLKPEDTAVYYCNAKSLISDYWGQGTQVTVSS",371
5,"anti-GCC single domain antibody SEQ ID NO. 6 (VHH, Alpaca-derived sdAb) VHH: QVQVVESGGGLVQAGGSLRLSCAASGRAFSSYAMGWFRQAPGKQRELVAVITSGGSTNYADSVKGRFTISRDNAKNTVYLQMNSLKPEDTAVYYCAAGTGYGGGFLIGYDYWGQGTQVTVSS",298

# Source: patent US20260193377A1 (FULL LIFE TECHNOLOGIES HK, published 2026)
